Results taken from article doi:10.1101/2021.01.07.425795 (bioRxiv, 2021).
Changes are numbered by the printed parent chain. Like-named read-outs stand apart in the source and are kept apart here.

T1: His6-ECSIT (human, UniProt Q9BQ95 49-431)
T1 sequence (looked up): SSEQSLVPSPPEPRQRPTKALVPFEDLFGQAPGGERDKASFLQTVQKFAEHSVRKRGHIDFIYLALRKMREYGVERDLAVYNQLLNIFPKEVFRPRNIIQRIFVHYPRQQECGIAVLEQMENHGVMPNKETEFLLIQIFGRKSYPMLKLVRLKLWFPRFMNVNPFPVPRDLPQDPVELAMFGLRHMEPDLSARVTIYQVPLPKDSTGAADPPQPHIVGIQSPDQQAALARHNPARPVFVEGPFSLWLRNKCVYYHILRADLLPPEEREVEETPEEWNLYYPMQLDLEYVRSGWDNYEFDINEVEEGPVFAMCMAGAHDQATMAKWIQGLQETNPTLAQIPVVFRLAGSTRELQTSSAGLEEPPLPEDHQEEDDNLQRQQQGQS

B1: ACAD9 (wild type, without a tag) (enzyme, human, UniProt Q9H845 38-621, looked up)
chain: AFAKELFLGKIKKKEVFPFPEVSQDELNEINQFLGPVEKFFTEEVDSRKIDQEGKIPDETLEKLKSLGLFGLQVPEEYGGLGFSNTMYSRLGEIISMDGSITVTLAAHQAIGLKGIILAGTEEQKAKYLPKLASGEHIAAFCLTEPASGSDAASIRSRATLSEDKKHYILNGSKVWITNGGLANIFTVFAKTEVVDSDGSVKDKITAFIVERDFGGVTNGKPEDKLGIRGSNTCEVHFENTKIPVENILGEVGDGFKVAMNILNSGRFSMGSVVAGLLKRLIEMTAEYACTRKQFNKRLSEFGLIQEKFALMAQKAYVMESMTYLTAGMLDQPGFPDCSIEAAMVKVFSSEAAWQCVSEALQILGGLGYTRDYPYERILRDTRILLIFEGTNEILRMYIALTGLQHAGRILTTRIHELKQAKVSTVMDTVGRRLRDSLGRTVDLGLTGNHGVVHPSLADSANKFEENTYCFGRTVETLLLRFGKTIMEEQLVLKRVANILINLYGMTAVLSRASRSIRIGLRNHDHEVLLANTFCVEAYLQNLFSLSQLDKYAPENLDEQIKKVSQQILEKRAYICAHPLDRTC
B2: His6-C-ECSIT (domain or fragment, human, UniProt Q9BQ95 249-431, looked up)
chain: LPKDSTGAADPPQPHIVGIQSPDQQAALARHNPARPVFVEGPFSLWLRNKCVYYHILRADLLPPEEREVEETPEEWNLYYPMQLDLEYVRSGWDNYEFDINEVEEGPVFAMCMAGAHDQATMAKWIQGLQETNPTLAQIPVVFRLAGSTRELQTSSAGLEEPPLPEDHQEEDDNLQRQQQGQS
B3: ECSIT (tag-free) (natural protein, human, UniProt Q9BQ95 49-431, looked up)
chain: T1 sequence (looked up)
B4: His6-SMT3-NDUFAF1 (natural protein, human, UniProt Q9Y375 25-327, looked up)
chain: YPFLGIRFAEYSSSLQKPVASPGKASSQRKTEGDLQGDHQKEVALDITSSEEKPDVSFDKAIRDEAIYHFRLLKDEIVDHWRGPEGHPLHEVLLEQAKVVWQFRGKEDLDKWTVTSDKTIGGRSEVFLKMGKNNQSALLYGTLSSEAPQDGESTRSGYCAMISRIPRGAFERKMSYDWSQFNTLYLRVRGDGRPWMVNIKEDTDFFQRTNQMYSYFMFTRGGPYWQEVKIPFSKFFFSNRGRIRDVQHELPLDKISSIGFTLADKVDGPFFLEIDFIGVFTDPAHTEEFAYENSPELNPRLFK
B5: very long chain acyl-CoA dehydrogenase (VLCAD) (enzyme, human, UniProt P49748 41-655, looked up)
chain: AGGAAQLALDKSDSHPSDALTRKKPAKAESKSFAVGMFKGQLTTDQVFPYPSVLNEEQTQFLKELVEPVSRFFEEVNDPAKNDALEMVEETTWQGLKELGAFGLQVPSELGGVGLCNTQYARLVEIVGMHDLGVGITLGAHQSIGFKGILLFGTKAQKEKYLPKLASGETVAAFCLTEPSSGSDAASIRTSAVPSPCGKYYTLNGSKLWISNGGLADIFTVFAKTPVTDPATGAVKEKITAFVVERGFGGITHGPPEKKMGIKASNTAEVFFDGVRVPSENVLGEVGSGFKVAMHILNNGRFGMAAALAGTMRGIIAKAVDHATNRTQFGEKIHNFGLIQEKLARMVMLQYVTESMAYMVSANMDQGATDFQIEAAISKIFGSEAAWKVTDECIQIMGGMGFMKEPGVERVLRDLRIFRIFEGTNDILRLFVALQGCMDKGKELSGLGSALKNPFGNAGLLLGEAGKQLRRRAGLGSGLSLSGLVHPELSRSGELAVRALEQFATVVEAKLIKHKKGIVNEQFLLQRLADGAIDLYAMVVVLSRASRSLSEGHPTAQHEKMLCDTWCIEAAARIREGMAALQSDPWQQELYRNFKSISKALVERGGVVTSNPLGF
B6: ACAD9-His6 (enzyme, human, UniProt Q9H845 38-621, looked up)
chain: B1 chain
B7: ACAD9 Arg469Trp (enzyme, human, UniProt Q9H845 38-621, looked up)
chain: B1 chain with R432W
B8: ACAD9 Arg518His (enzyme, human, UniProt Q9H845 38-621, looked up)
chain: B1 chain with R481H
B9: ACAD9 Arg532Trp (enzyme, human, UniProt Q9H845 38-621, looked up)
chain: B1 chain with R495W
B10: ACAD9 Glu426Gln (enzyme, human, UniProt Q9H845 38-621, looked up)
chain: B1 chain with E389Q
B11: Loop12-ACAD9 (enzyme, human)
chain: AFAKELFLGKIKKKEVFPFPEVSQDELNEINQFLGPVEKFFTEEVDSRKIDQEGKIPDETLEKLKSLGLFGLQVPEEYGGLGFSNTMYSRLGEIISMDGSITVTLAAHQAIGLKGIILAGTEEQKAKYLPKLASGEHIAAFCLTEPASGSDAASIRSRATLSEDKKHYILNGSKVWITNGGLANIFTVFAKTEVVDSDGSVKDKITAFIVERDFGGVTNGKPEDKLGIRGSNTCEVHFENTKIPVENILGEVGDGFKVAMNILNSGRFSMGSVVAGLLKRLIEMTAEYACTRKQFNKRLSEFGLIQEKFALMAQKAYVMESMTYLTAGMLDQPGFPDCSIEAAMVKVFSSEAAWQCVSEALQILGGLGYTRDYPYERILRDTRILLIFEGTNEILRMYIALTGLQHAGRILTTGGSGGSGGSGGSDLGLTGNHGVVHPSLADSANKFEENTYCFGRTVETLLLRFGKTIMEEQLVLKRVANILINLYGMTAVLSRASRSIRIGLRNHDHEVLLANTFCVEAYLQNLFSLSQLDKYAPENLDEQIKKVSQQILEKRAYICAHPLDRTC

Assays:
SEC = biological target: the molecule itself; experiment: SEC
[1] = biological target: B1; experiment: SEC
ACAD9-His6 = biological target: B6; experiment: pull-down
His6-ECSIT [2] = biological target: T1, His6-ECSIT; experiment: SEC
His6-ECSIT [3] = biological target: T1, His6-ECSIT; experiment: SEC; remark: listed apart in the source

| Binder | stoichiometry N (SEC) | further results |
| --- | --- | --- |
| B1 | 2 |  |
| B2 | 4 | stoichiometry N [1]: 1 C-ECSIT chains per ACAD9 chain (one tetramer with two dimers) |
| B3 |  | stoichiometry N (ACAD9-His6): ~1 mol/mol |
| B4 |  | stoichiometry N (His6-ECSIT [2]): 1 NDUFAF1 chains per ECSIT chain (two monomers with one dimer); stoichiometry N (His6-ECSIT [3]): 1 mol/mol |
| B5 | 2 |  |
| B6 | 2 |  |
| B7 | 2 |  |
| B8 | 2 |  |
| B9 | 2 |  |
| B10 | 2 |  |
| B11 | 2 |  |
